Key:
[1] = target: IFNAR1-IgG multiple alanine mutant 1, residues 19-25 (RWNRSDE to AWNASAA) (human); test: capture ELISA, mutant IFNAR1-IgG captured by goat anti-hIgG-Fc, mAb 10 µg/ml; OD as % of wild type IFNAR1-IgG
[2] = target: IFNAR1-IgG multiple alanine mutant 4, residues 103-111 (… to …) (human); test: as above
[3] = target: IFNAR1-IgG multiple alanine mutant 6, residues 157-162 (RHKIYK to AAAIYA) (human); test: as above
[4] = target: IFNAR1-IgG multiple alanine mutant 9, residues 352-359 (ERKIIEKK to AAAIIAAA) (human); test: as above
[5] = target: IFNAR1-IgG multiple alanine mutant 8, residues 291-298 (EEIKFDTE to AAIAFATA) (human); test: as above
[6] = target: IFNAR1-IgG multiple alanine mutant 10, residues 383-388 (DEKLNK to AAALNA) (human); test: as above
[7] = target: IFNAR1-IgG multiple alanine mutant 5, residues 148-152 (EERIE to AAAIA) (human); test: as above
[8] = target: IFNAR1-IgG multiple alanine mutant 3, residues 76-80 (RAEKE to AAAAA) (human); test: as above
[9] = target: IFNAR1-IgG multiple alanine mutant 7, residues 244-249 (HLYKWK to ALYAWA) (human); test: as above
[10] = target: IFNAR1-IgG multiple alanine mutant 2, residues 69-74 (EEIKLR to AAIALA) (human); test: as above
[11] = target: human IFNAR1, membrane receptor on cells (U266 human myeloma cells; Hela and A549 cells in the functional assays) (human) (UniProt P17181); test: flow cytometry on U266 cells, F-mAb preincubated with competitor: 10 µg soluble wild type hIFNAR1-IgG
[12] = target: hIFNAR1 ECD-IgG fusion protein (immunoadhesin, pRK5 hIFNAR1-IgG clone 53.65), wild type (human); test: competitive radioimmunoprecipitation with 125I-hIFNAR1-IgG and unlabeled hIFNAR1-IgG, Scatchard analysis
[13] = target: human IFNAR1, membrane receptor on cells (U266 human myeloma cells; Hela and A549 cells in the functional assays) (human) (UniProt P17181); test: flow cytometry on U266 cells, F-mAb preincubated with competitor: 10 µg soluble hIFNAR1-IgG Mutant #8 (291-298)
[14] = target: human IFNAR1, membrane receptor on cells (U266 human myeloma cells; Hela and A549 cells in the functional assays) (human) (UniProt P17181); test: cell-based or functional assay
[15] = target: IFNAR1-IgG single alanine mutant E70A (human); test: capture ELISA, single alanine mutant IFNAR1-IgG captured by goat anti-hIgG-Fc; OD as % of wild type IFNAR1-IgG
[16] = target: IFNAR1-IgG single alanine mutant R74A (human); test: as above
[17] = target: IFNAR1-IgG single alanine mutant E298A (human); test: as above
[18] = target: IFNAR1-IgG single alanine mutant K247A (human); test: as above
[19] = target: IFNAR1-IgG single alanine mutant K72A (human); test: as above
[20] = target: IFNAR1-IgG single alanine mutant D296A (human); test: as above
[21] = target: IFNAR1-IgG single alanine mutant K294A (human); test: as above
[22] = target: IFNAR1-IgG single alanine mutant K249A (human); test: as above
[23] = target: IFNAR1-IgG single alanine mutant H244A (human); test: as above
[24] = target: IFNAR1-IgG single alanine mutant E69A (human); test: as above
[25] = target: IFNAR1-IgG single alanine mutant E292A (human); test: as above
[26] = target: IFNAR1-IgG single alanine mutant E291A (human); test: as above
[27] = target: human IFNAR1, membrane receptor on cells (U266 human myeloma cells; Hela and A549 cells in the functional assays) (human) (UniProt P17181); test: flow cytometry on U266 cells, fluoresceinated mAb 1 µg/100 µl, no soluble hIFNAR1
[28] = target: human IFNAR1, membrane receptor on cells (U266 human myeloma cells; Hela and A549 cells in the functional assays) (human) (UniProt P17181); test: flow cytometry on U266 cells, F-mAb preincubated with competitor: 10 µg soluble hIFNAR1-IgG Mutant #7 (244-249)

IFNAR1-IgG single alanine mutant R74A (human), sequence (chain, as listed by the source R74A R74A limits assumed): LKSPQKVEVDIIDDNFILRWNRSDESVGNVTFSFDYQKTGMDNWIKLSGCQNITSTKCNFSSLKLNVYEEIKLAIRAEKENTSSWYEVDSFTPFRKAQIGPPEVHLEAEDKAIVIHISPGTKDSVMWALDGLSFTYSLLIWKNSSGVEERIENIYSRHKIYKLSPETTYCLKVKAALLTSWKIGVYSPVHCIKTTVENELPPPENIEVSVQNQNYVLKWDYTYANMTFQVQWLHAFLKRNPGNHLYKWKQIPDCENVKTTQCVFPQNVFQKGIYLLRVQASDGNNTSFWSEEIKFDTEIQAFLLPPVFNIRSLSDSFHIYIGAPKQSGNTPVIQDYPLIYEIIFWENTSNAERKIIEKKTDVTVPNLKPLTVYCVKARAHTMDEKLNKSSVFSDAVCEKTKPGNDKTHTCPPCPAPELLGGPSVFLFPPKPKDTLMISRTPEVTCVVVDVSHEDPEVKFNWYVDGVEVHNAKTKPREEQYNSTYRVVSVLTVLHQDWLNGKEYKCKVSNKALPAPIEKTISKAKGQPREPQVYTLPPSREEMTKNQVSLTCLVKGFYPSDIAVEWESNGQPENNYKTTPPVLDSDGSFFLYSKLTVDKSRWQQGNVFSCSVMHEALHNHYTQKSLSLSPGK
IFNAR1-IgG multiple alanine mutant 4, residues 103-111 (… to …) (human), sequence (chain, as listed by the source mutant limits assumed): as the sequence (chain, as listed by the source R74A R74A limits assumed) above, with A74R, E103A, H105A, E107A, E109A, D110A, K111A counted along it
IFNAR1-IgG multiple alanine mutant 5, residues 148-152 (EERIE to AAAIA) (human), sequence (chain, as listed by the source mutant limits assumed): as the sequence (chain, as listed by the source R74A R74A limits assumed) above, with A74R, E148A, E149A, R150A, E152A counted along it
IFNAR1-IgG multiple alanine mutant 3, residues 76-80 (RAEKE to AAAAA) (human), sequence (chain, as listed by the source mutant limits assumed): as the sequence (chain, as listed by the source R74A R74A limits assumed) above, with A74R, R76A, E78A, K79A, E80A counted along it
IFNAR1-IgG multiple alanine mutant 8, residues 291-298 (EEIKFDTE to AAIAFATA) (human), sequence (chain, as listed by the source mutant limits assumed): as the sequence (chain, as listed by the source R74A R74A limits assumed) above, with A74R, E291A, E292A, K294A, D296A, E298A counted along it
IFNAR1-IgG multiple alanine mutant 6, residues 157-162 (RHKIYK to AAAIYA) (human), sequence (chain, as listed by the source mutant limits assumed): as the sequence (chain, as listed by the source R74A R74A limits assumed) above, with A74R, R157A, H158A, K159A, K162A counted along it
IFNAR1-IgG single alanine mutant K294A (human), sequence (chain, as listed by the source K294A K294A limits assumed): as the sequence (chain, as listed by the source R74A R74A limits assumed) above, with A74R, K294A counted along it
IFNAR1-IgG single alanine mutant D296A (human), sequence (chain, as listed by the source D296A D296A limits assumed): as the sequence (chain, as listed by the source R74A R74A limits assumed) above, with A74R, D296A counted along it

Row | Substance | % Wild type binding of mAbs [1] [%] | % Wild type binding of mAbs [2] [%] | % Wild type binding of mAbs [3] [%] | % Wild type binding of mAbs [4] [%] | % Wild type binding of mAbs [5] [%] | % Wild type binding of mAbs [6] [%] | % Wild type binding of mAbs [7] [%] | % Wild type binding of mAbs [8] [%] | % Wild type binding of mAbs [9] [%] | % Wild type binding of mAbs [10] [%] | Kd [12] [nM] | EC50 of mAb neutralizing the anti-viral cytopathic effect of 10 units/ml IFNα1 on A549 cells (EMC virus) [14] [µg/mL] | EC50 of mAb neutralizing the anti-viral cytopathic effect of 10 units/ml IFNα2/1 on A549 cells (EMC virus) [14] [µg/mL] | EC50 of mAb neutralizing the anti-viral cytopathic effect of 10 units/ml IFNα2 on A549 cells (EMC virus) [14] [µg/mL] | EC50 of mAb neutralizing the anti-viral cytopathic effect of 10 units/ml IFNα5 on A549 cells (EMC virus) [14] [µg/mL] | EC50 of mAb neutralizing the anti-viral cytopathic effect of 10 units/ml IFNα8 on A549 cells (EMC virus) [14] [µg/mL] | EC50 of mAb neutralizing the anti-viral cytopathic effect of 10 units/ml IFNβ on A549 cells (EMC virus) [14] [µg/mL] | % Wild type binding of mAbs [15] [%] | % Wild type binding of mAbs [16] [%] | % Wild type binding of mAbs [17] [%] | other results
1 | anti-hIFNAR1 monoclonal antibody 2E1 (hybridoma ATCC HB 12133) | 101 | 66 | 84 | 105 | 6 | 105 | 87 | 97 | 0 | 21 | 0.066 | 3 | 3 | 1 | 1 | 1 | > 30 | 81 | 57 | 36 | Mean Fluorescence Intensity [11]: 2.83; Mean Fluorescence Intensity [13]: 7.65; % Wild type binding of mAbs [18]: 74%; % Wild type binding of mAbs [19]: 90%; % Wild type binding of mAbs [20]: 5%; % Wild type binding of mAbs [21]: 54%; % Wild type binding of mAbs [22]: 5%; % Wild type binding of mAbs [23]: 92%; % Wild type binding of mAbs [24]: 72%; % Wild type binding of mAbs [25]: 34%; % Wild type binding of mAbs [26]: 7%; Mean Fluorescence Intensity [27]: 7.6; Mean Fluorescence Intensity [28]: 7.82
2 | anti-hIFNAR1 monoclonal antibody 2E8 (hybridoma ATCC HB 12130) | 84 | 33 | 77 | 81 | 0 | 116 | 43 | 69 | 77 | 18 | 0.097 | > 30 | > 30 | > 30 | > 30 | > 30 | > 30 | 80 | 53 | 31 | Mean Fluorescence Intensity [11]: 3.16; Mean Fluorescence Intensity [13]: 7.6; % Wild type binding of mAbs [18]: 66%; % Wild type binding of mAbs [19]: 89%; % Wild type binding of mAbs [20]: 3%; % Wild type binding of mAbs [21]: 54%; % Wild type binding of mAbs [22]: 54%; % Wild type binding of mAbs [23]: 96%; % Wild type binding of mAbs [24]: 72%; % Wild type binding of mAbs [25]: 29%; % Wild type binding of mAbs [26]: 3%; Mean Fluorescence Intensity [27]: 7.96; Mean Fluorescence Intensity [28]: 3.27
3 | anti-hIFNAR1 monoclonal antibody 2H6 (hybridoma ATCC HB 12131) | 77 | 39 | 90 | 101 | 64 | 93 | 68 | 48 | 105 | 0 | 3.12 | > 30 | > 30 | > 30 | > 30 | > 30 | > 30 | 79 | 0 | 53 | % Wild type binding of mAbs [18]: 88%; % Wild type binding of mAbs [19]: 89%; % Wild type binding of mAbs [20]: 49%; % Wild type binding of mAbs [21]: 65%; % Wild type binding of mAbs [22]: 69%; % Wild type binding of mAbs [23]: 94%; % Wild type binding of mAbs [24]: 64%; % Wild type binding of mAbs [25]: 55%; % Wild type binding of mAbs [26]: 49%
4 | anti-hIFNAR1 monoclonal antibody 5A8 (hybridoma ATCC HB 12129) | 110 | 34 | 100 | 81 | 75 | 83 | 80 | 109 | 110 | 67 | 0.174 | > 30 | > 30 | > 30 | > 30 | > 30 | > 30 | 83 | 84 | 72 | % Wild type binding of mAbs [18]: 93%; % Wild type binding of mAbs [19]: 110%; % Wild type binding of mAbs [20]: 70%; % Wild type binding of mAbs [21]: 82%; % Wild type binding of mAbs [22]: 71%; % Wild type binding of mAbs [23]: 99%; % Wild type binding of mAbs [24]: 91%; % Wild type binding of mAbs [25]: 66%; % Wild type binding of mAbs [26]: 61%

From US20080102072A1
